Assay results as given in US20230020546A1, “APPLICATION OF PROGESTIN IN PREPARATION OF DRUG INHIBITING CYTOKINE STORM” (SHENZHEN EVERGREEN THERAPEUTICS CO., LTD., priority 2020, published 2023).

Tests used:
hu-SCID mice [1] = assay: Rectal temperature after antibody injection in hu-SCID mice; assay type: in vivo
[2] = tested on: circulating cytokines in hu-SCID mice; assay: Circulating cytokines in plasma of hu-SCID mice after OKT3 injection (multiplex immunoassay); assay type: in vivo; settings: for Inhibition of OKT3-induced immune (cytokine) storm in an animal model: hu-SCID mice, overall conclusion; for IFN-γ Concentration / IL-1β Concentration / IL-2 Concentration / IL-4 Concentration / IL-5 Concentration / IL-6 Concentration / IL-10 Concentration / TNF-α Concentration: OKT3 10 μg IP alone
Procedure: […] A multiplex immunoassay system was then applied to the collected heparinized plasma to analyze cytokines. Cytokines measured included human IL-1β, IL-2, IL-4, IL-5, IL-6, IL-10, IL-12 (p70), IL-13, IL-17, IFN-γand TNF-α. […] The activation markers thereof were then analyzed by flow cytometry. Human peripheral blood mononuclear cells in the mouse spleen were blocked with 2.4G2 and then stained with fluorescently labeled CD69, CD25, CD45 and CD3.
After antibody injection, in order to determine if a cytokine storm was induced, we detected cytokines (human IL-1β, IL-2, IL-4, IL-5, IL-6, IL-10, IL-12 (p70), IL-13, IL17, IFN-γ and TNF-α) in the plasma of the hu-SCID mice.
On days 8 and 9 after intravenous injection of PBMCs in humanized mice (48 hours and 24 hours before antibody injection), a candidate drug PR2005 (5 mg/kg) was injected intraperitoneally to the animals. […] The results are detailed in Tables 1-4.

hu-SCID mice [3] = settings: mouse, in vivo, ip
Procedure: (§1) Each humanized mouse for the test was first intravenously injected with 2×10^7 PBMCs. After 10 days, each mouse was injected with OKT3 or control IgG (2 μg or 10 μg, IV or IP).
(§2) Clinical score measurement: as recommended by the Canadian Council for Animal Care (www.ccac.ca/en /standards/guidelines), we conducted preliminary studies to determine the most appropriate clinical symptoms and scoring criteria. […] Score: 0=normal activity; 1=normal activity, hairs upright, and tiptoe gait; 2=arched back, decreased activity, but there are still activities; 3=too few activities, but there are still activities when prompted; 4=dying. Mice with a clinical score of 4 were sacrificed.

hu-SCID mice [4] = assay: Clinical symptoms / clinical score after antibody injection in hu-SCID mice
Procedure: as §1, §2

Molecule: CCCCCC(=O)O[C@]1(C(C)=O)CC[C@H]2[C@@H]3CCC4=CC(=O)CC[C@]4(C)[C@H]3CC[C@@]21C [PR2005, hydroxyprogesterone caproate, reference compound]
- Body temperature change after receiving OKT3 (hu-SCID mice [1]; PR2005 5 mg/kg IP, 48 hours and 24 hours before antibody injection): no significant changes in body temperature
- Concentration of cytokines in the blood vs animals using OKT3 alone ([2]; PR2005 5 mg/kg IP before OKT3): substantially lower
- Inhibition of OKT3-induced immune (cytokine) storm in an animal model [2]: can inhibit the OKT3-induced immune storm
- Inhibition of OKT3-induced immune (cytokine) storm in an animal model ([2]; listed as hydroxyprogesterone caproate): can inhibit the cytokine storm

Molecule: OKT3: muromonab-CD3 antibody used to induce the cytokine storm in hu-SCID mice
- Rectal temperature (hu-SCID mice [1]; OKT3 2 μg IP, 0 h): 37.7 °C
- Rectal temperature (hu-SCID mice [1]; OKT3 2 μg IP, 1 h): 35.6 °C
- Rectal temperature (hu-SCID mice [1]; OKT3 2 μg IP, 2 h): 34.8 °C
- Rectal temperature (hu-SCID mice [1]; OKT3 2 μg IP, 5 h): 35.4 °C
- Rectal temperature change (hu-SCID mice [1]; OKT3 2 μg IP, similar to control human IgG): moderate changes
- Rectal temperature (hu-SCID mice [1]; OKT3 2 μg IV, 0 h): 37.7 °C
- Rectal temperature (hu-SCID mice [1]; OKT3 2 μg IV, 1 h): 31.7 °C
- Rectal temperature (hu-SCID mice [1]; OKT3 2 μg IV, 2 h): 33.8 °C
- Rectal temperature (hu-SCID mice [1]; OKT3 2 μg IV, 5 h): 34.9 °C
- Transient hypothermia (rectal temperature) (hu-SCID mice [1]; OKT3 2 μg IV, at 1 h, partial recovery after 5 h): about 32 °C
- Rectal temperature decrease (from 37° C.) (hu-SCID mice [1]; OKT3 10 μg IP or IV, within 1 h): ≤ 32 °C
- Rectal temperature (hu-SCID mice [1]; OKT3 10 μg IP, 0 h): 37.7 °C
- Rectal temperature (hu-SCID mice [1]; OKT3 10 μg IP, 1 h): 31.7 °C
- Rectal temperature (hu-SCID mice [1]; OKT3 10 μg IP, 2 h): 31.1 °C
- Rectal temperature (hu-SCID mice [1]; OKT3 10 μg IP, 5 h): 30.6 °C
- Rectal temperature (hu-SCID mice [1]; OKT3 10 μg IV, 0 h): 37.7 °C
- Rectal temperature (hu-SCID mice [1]; OKT3 10 μg IV, 1 h): 31.9 °C
- Induced cytokines ([2]; OKT3 2 μg IP or IV, any time point): rarely detected
- Time of TNF-α peak ([2]; OKT3 10 μg IP): 1 h
- IFN-γ Concentration ([2]; 1 h): 7015 pg/mL
- IL-1β Concentration ([2]; 1 h): 44.0 pg/mL
- IL-2 Concentration ([2]; 1 h): 39.0 pg/mL
- IL-4 Concentration ([2]; 1 h): 61 pg/mL
- IL-5 Concentration ([2]; 1 h): 72 pg/mL
- IL-6 Concentration ([2]; 1 h): 96 pg/mL
- IL-10 Concentration ([2]; 1 h): 3319 pg/mL
- TNF-α Concentration ([2]; 1 h): 1409 pg/mL
- IFN-γ Concentration ([2]; 2 h): 23574 pg/mL
- IL-1β Concentration ([2]; 2 h): 77.5 pg/mL
- IL-2 Concentration ([2]; 2 h): 75.9 pg/mL
- IL-4 Concentration ([2]; 2 h): 182 pg/mL
- IL-5 Concentration ([2]; 2 h): 98 pg/mL
- IL-6 Concentration ([2]; 2 h): 160 pg/mL
- IL-10 Concentration ([2]; 2 h): 11001 pg/mL
- TNF-α Concentration ([2]; 2 h): 1127 pg/mL
- IFN-γ Concentration ([2]; 5 h): 25783 pg/mL
- IL-1β Concentration ([2]; 5 h): 97.4 pg/mL
- IL-2 Concentration ([2]; 5 h): 89.4 pg/mL
- IL-4 Concentration ([2]; 5 h): 259 pg/mL
- IL-5 Concentration ([2]; 5 h): 158 pg/mL
- IL-6 Concentration ([2]; 5 h): 252 pg/mL
- IL-10 Concentration ([2]; 5 h): 20052 pg/mL
- TNF-α Concentration ([2]; 5 h): 655 pg/mL
- Induction of cytokines (IL-1β, IL-2, IL-4, IL-5, IL-6, IL-10, IFN-γ) ([2]; OKT3 10 μg IP, concentrations gradually increased within 5 h): may induce production of multiple cytokines
- Mice dying and sacrificed (hu-SCID mice [3]): one of 5
- Symptom observation (hu-SCID mice [4]; OKT3 2 μg IP): unaffected
- Mice needing to be euthanized (hu-SCID mice [4]; OKT3 2 μg IV): Two of four
- Response (symptoms) (hu-SCID mice [4]; OKT3 2 μg IV, within 1 h): moderate to severe
- Clinical score (hu-SCID mice [4]; OKT3 10 μg IP): moderate
- Response (symptoms) (hu-SCID mice [4]; OKT3 10 μg IV): severe
- Mice sacrificed (hu-SCID mice [4]; OKT3 10 μg IV, at 1 h): all mice were sacrificed
